According to a protein production outcome set (Wang et al. 2014):

Experiment: label from the status in PepcDB records

Row | Sequence | protein production
1 | MLALPTTFAKSPIDNEASIEETTPKWSVNSPQGNFTTADIDVRSGTWMNVDLNPDGKTIIFDLLGDIYTMPASGGEATPLMTDIAWQMQPRFSPDGKYIAFTSDEDGGDNLWIMKADGSEAKAVTTETFRLLNSPAWSPDGNYIVGRKHYTGTRSLGAGEVWMYHKSGGNGVMLTKRPNEQKDLGEPAFSHDGKYVYFSQDATPGKSFHYSKDSEKGIYKIKRLELETGEIKVVVSGKGGAIRPTLSPDGKYLAFISRDDFQSNLYLYNLKNGEQSKVYDGLDRDMQETWAIHGVYPTMAWTPDSEGLVFWSGGKINKLSLDSKKAKVIDFHVKTTKKIQTAVRFPQDLDQKSFDTKMLRDVKVSPNGKLAVYESMGHLYTKSLPKGKPKRLTKQKSQFELNPSFSRDGKKIVYVSWDDKNLGQVRVVSSRGGKGKTITREPGKYVEPSFSPDGKAVVYRKVTGGFITDPTWGLNPGVYAVSVKGGKAKLVTEEGVQPHFGARNDRIYVTRDGETPHISRIDIDGQHDTKLYQGKFASEYRVSPDGNYLAFAERFKVFVTPFVERGDVIDIGPKAENLPVEQLSMRAGEGINWNGKSNELYWSLGADLYQASIKGLFDITAKTTDENDDGSEPETSASTVVNDINVINLSYKQKVDIPSGHVAFVGGKVITMEGEQVIDNGVVLVEGNKIKAVGTKGQVNIPSDATIIDITGKTVMPGLIDAHAHGPQGSNEIIPQQNWKNYAGLALGVTTIHDPSNDTTEFFAASEMQKAGKIVAARLFSTGTILYGATIPGYTSHVDSLDDAKFHVERLKAAGAFSVKSYNQPRRNQRQQFIQAARELEMMVVPEGGSLLQHNLTMVVDGHTTLEHSISTAKIYADIKQLWSQSDMAYTPTMGVAYGGISGENYWYDTTNVWEHPRLSQYVPSEFLDPRSMRRPKAPLHHYNHFNVAKVAKEMQDLGVVVNAGGHGQREGLAMHWEMWMMAQGGMSPLQAIRTATISPAKSLGLDKDLGSLTVGKLADMIVIDGDITQDIRLSDKVTHTMINGRLYNADTMNEIGNYDNKREKFYFENK | failed
2 | MSIKVEDYFAPETFQRMKAFADKQETPFVVIDKQTIADAYDQLTDCFPFARIYYAVKANPATEITELLRDKGSNFDIASIYELDKVMKTGVGPERISYGNTIKKSKDIRYFYEKGVRLFATDSEADLRNIAKAAPGAKVYVRILTEGSTTADWPLSRKFGCQTDMAMDLLILARQLGLEPYGISFHVGSQQRDISVWDAAIAKVKVIFERLKEEDGIVLKMINMGGGFPANYITKTNDLETYAEEIIRFLKEDFGDDLPEIILEPGRSLIANAGILVSEVVLVARKSRTAVERWVYADVGKFSGLIETMDESIKFPIWTEKQGEMEEVVIAGPTCDSADIMYEHYKYGLPLNLASGDRLYWLSTGAYTTSYSAVEFNGFPPLKAFYL | failed
3 | MSKHVLRLALVGNPNSGKTALFNRLTGSRQKVANYPGVTVERKEGYFRASSGREFVILDLPGAYSFQPASFDEAITRDFCRGFYPGEAPPDVLVCVVDATNLRLHLRFVLELIELGRPVVVALNMVDAAQRRGIRIDRVILEQLLGVPVVETVAVRRHGARALLEQLDTGVIPLPAPVPALAAGDQYHAQVRHILDAAVKMPSRTSRVDDALDRWLLHPVFGLVVLTVVMFLIFQAVYAWAAPLVSLIEGSTTVLGHWVGNRLPDGPLRSLVVDGIITGIGGVLMFLPQILILFAFILALEESGYLPRAAFLLDRLMVLAGLSGRSFIPLLSSFACAVPGIMSTRSIQDPRDRLVTILVAPLMTCSARLPVYTLLIGAFVPRKSLWGPINQQGLVLFGLYMAGIFSALVVSWTVKKWRRGTSEHPLLLELPSYRLPHSRDLLLGLWERAVIFLKRVGGIILALTILLWFLLAFPEPPSGAIGPAIQYSFAGRIGHVIAVFFAPLGFSWQICIALIPGLAAREVAVSSLATVYALSASNEEMAVRALSPLIQDGWSLATALSLLVWYIYAPMCISTLVTIKRETNSWKHMAMTAGYLFALAYLAALATYQVALLLGAG | failed
4 | MQEYIEFFKAHTLLSLAWVGLFVMLVVSVIKSSFSKIKNVTHQELTIMVNRQDAKVVDVRSNDDFRKGHIVGAVNVTLADIKNNQVSALEKFKGSPIILVCNAGMTSSQAAQLLSKQGFENLYNLKGGMGEWQAANMPVSKSKR | failed
5 | MTDRSEDADGEPAPEDAAGLDDDALDHEFSEGAGFDDPYAGFDLDPPELDVDPDTVDPVDSRVVADTLDERTLDNDAVDADELIDVGLSYMGINRNEQAVDTFERAAQYTDDDNREQEAWVNKGIAHGELEEWDAAVGAHREALFVADDGDFEAAAHTNLAYALWEFGEDEQAYEHAEEAVRVDKRLPQAWYNLGFIENERDRPEQALDALDNAIRLGFQQADVYEEKTRALEALGRDEEAAKVAEQADEIRSQQERELVDER | failed
6 | MNRLDQLGIRINLICNVFDKWIGQQDLNYNLFTVLYTLATEGSRTQKHIGEEWSLPKQTVSGVCKTLAGQGLIEWQEGEQDRRERLLSLTEKGKVHAAPLTENAQEFSDKVFSTFGDKRTTRLFADLDALAEVMEKTISENKK | failed
7 | RPSWGYARSMAGRLAGATAVLDVQTGGGEVLDFALEAAGPHRAPLVAATEGWAPNVAQATRLLRPRGVPVVASADDAPLPFADGAFDLVVSRHPVEPHWDEVARVLMPGGTYFAQHVGPASVFELIEYFLGPLPEDSRRHRDPERERADAEAAGLEVVELRAERLRMEFLDIGAVVHFLRKVVWMVPGFTVEAYRDRLRDLHERIEADGPFVAHSSRHLFDVRKP | failed
8 | MKRGRRASPAAGQHFKVLACEPCVSRRGIYTTLSLQLQKRALQGLQGGAGRRDLSLDRKGFHGLFLRCPFAALRCCQLRLLLGELLLSIFNLLLYFLDRIIEGRLARTANAATTTCCTSLAAFGGSLIRAFLCLSGGRRSSSRLGCFGVGRLDRDRQRAGVAVQCRSIDGSHDGLLGF | failed
9 | MNPGKGPVLRFRVQLLVVGFALALGAAHQAQAAPGRALYKLPDLRVGLGDDNQGDTIPGPTRPNGSIHPSPDTLKASNAGYNPAEPISGFAQLHSQGSGGVTTYGTFLLSPQVGEPVFDEAAHLSPKADETLAADAYSVRLTRYDTKVEITSAHYAAIYRLTYPTTDQAQVVLDVTRKVGGLVASEQADVQLFPEQGRIVGHVKAKGYWNPALIDIWFVAEFDQNPTAWGVFDKAERRDGALSGRTGSDERLGAWLTFKTTPTKPLLVKIAVSFVSAEMAKALLDREIPDWDFERVRRDTQAAWNDRLGQVRVEGMTESQQRRFYSALYHASTHPRDRSLDQPAARLGRPNWDEHYTLWDTYRTLFPLISVLRPSLYTANVNSLIHTFDKFGAADTAIIGGQNYHVGQGGDEVDNVLGEALLRGAEGVNWRDAWRVARFNAFERRRPRYLESGYFAVGDRSPEPNNQRAKSGSSTLGFALNDFYAAQVAAKAGQTDEAKILTERSANWRKIWNPDATSDGFSGFLMPRYADGKFQDIDPKLGWDGKVHNNVGYYEGTAWIYSYGVLHDLPGLVEAMGGRVRFNERLNHALDAGLIDITNEPSFATPWLFHAIGRADLSSRWAGEVVKHFTADAYPGDEDAGAMSSNFVFNSLGLFPKLGSDLYYLHGPRHGRTVIQLENGKTLEILAAKAGASRPYIASASFNGKPLAGPYVSQAQLLGGGVLSLSMSDQPGQWIYEGAVLTVRADQPSLVDGKTSTGWRAASGQSVTFSLKAPACIAAYSVSVGPDQADPSHWTLQAYDGRAWVSVDQQSNVVFDHRHATRTFPLAPGRYARLRWVLDGGSEASVSEVELIAGASCAAPTSGAPLL | failed
10 | MSNACLASSLLSVCFRLSTERSAMSTSRLRPRCLSVLLAALLLWGGLPTASAQPQRAVRADTLYTMTGDPIENGVVLIENETIAAVGPTSEVDVPASAEVHKASVVTPGLIDPRGTVGLSGIYNVPADQDQLDTSEPMQPALRALDAYNPREQLVSFVQQLGFTTVHTGHAPGALISGQTATFSTAGTTVEASLRDSITTVAFTLGPDAQARFESPGTRAKGVAMLRQALHDAQAAMDGGEPEGGDLGQDVLQDVLRGEVPALITAHRAHDIQTALRLQEEFGFDLILDGAAEAYLMTEEIAEADVPVILHPTMARPSGTTQNAAFTTAGVLHDAGVPVAIQTGWEPYVPKTRIALYEAAIAMAHGLPREAALASITREAAEILGLDNVGTVAPGQRADLALFDGDPFEYTTHVCTVLSGGEVVSDECK | failed
11 | MLVNFIKNFIPHRFYSSKTEIPVVRLHGAIIDSSSSIARTLSLGRCANLLDKAFAYKKAPAVAVIINSPGGSPVQSRLIFKRIRDLAEEKKKQVLMFIEDIAASGGYMIACAGDEIFADPSSIVGSIGVVSASFGFPELLKKIGIERRVYTAGKNKVTLDPFQPEKKTDIEHLKSLQLEVHKTFIDLVKERRAEKLSNDPNIFTGMFWSGKKSVELGLIDGLNDVRSVIKERFGDDTKLRLIIPPKSLFGPKTPSGVTAHAVHTAIDSALMVAQERALWQYYGLLEHHHHHH | not failed
12 | MKNLKIIWIYRLGLLLLVFLCLLVFLKIKPLWAPIIFVCKVAITPFLIACFIAYLLHPLIEKIHKEGMPRTLAILLIYILFFGGIGYGIYKGTPVVIKQLQEINEQFPQFTKMYDSWMDGVTEQTANFPSFIHEKVKQIFVGVETKIQALLNKVMSTARGVLDSLLIIFLIPFIVFYILKDYGEFYHIFWKLVPSKWRSTGQMLAKEIDKSLGSYIRGQLFVCLVLGGVSALSFWFIGMKYPLLLGIIIGVTDIIPYFGPILGAIPTLMIAATVSTSLLIKAGIAIAILQFVESNILSPYIVGKSLRMHPVIIMLALLVGGEVGGIVGLLISVPILAVIRTVIVHVRPLWKKEDMQ | failed
13 | MGPINLLWLQAAGCGGCTMAILEQGRAGWFAELASFDINLLWHPSVSEATADDVIDLLAAVSAARTPLSVLVVEGAVLRGPNGSGRFNMLGGTGRSMASWISELAPRADYVVAVGSCSAYGGVPAAGHNPTDASGLQFLGTEPGGVLGAAFRSKAGLPVINIAGCAPHPGWIAETLAALALGEFSAAALDSFARPKFFAEHLAHHGCARNEFYEFKASAEAMSQRGCLMEHLGCKATQAVGDCNQRSWNGGGSCTQAGYPCIACTSPGFEAAHNYMTTAKVAGIPVGLPLDMPKAWFVALAALSKSATPKRVRANATADHVVVPPTPSGHRRK | failed
14 | MVDDIFERGSKGSSDFFTGNVWVKMLVTDENGVFNTQVYDVVFEPGARTHWHSHPGGQILIVTRGKGFYQERGKPARILKKGDVVEIPPNVVHWHGAAPDEELVHIGISTQVHLGPAEWLGSVTEEEYRKATEGK | not failed
15 | MSSSSDAPLVATRWVEIGLALFTAALGAIVMYGSQDIGIGWGDSGPEAGYFPFYIGLLLSAASLGNLLLALCRWRALGTSFVARTAFRRVLAVFLPIAAYVAAMPFAGIYLASALFIAWFMWRDRSRDKPYGVPLIVTLSCGAALASYLVFAVWFKVPLDAGILVDLAAFVGSARP | failed
16 | MEKSAGRGRPSVSVERIVATALEAVDEVGAQAFNMRMLAERLGSGTATLYRHFASKDEILIYVVDSVLGELLADQPEAVELVPQGQGSEGYSWQKACASGAERLYGVLRRHPGILPLLVSQIPIGPNGLKRREQGIALFLANGFPAELAARAYTSVAHYVLGFAIQQHSSASSEAAEGEELVEFFAALDASEYPAIATAGRHLPGISVEEEFRFGLKLIIDGLELAASAWRKADGC | failed
17 | MKIAVLGTGTVGRTMAGALADLGHEVTIGTRDPKATLARAEPDAMGAPPFSQWLPEHPHVHLAAFADVAAGAELVVNATEGASSIAALTAAGAENLAGKILVDIANPLDFSHGMPPTLNPVNTDSLGEQIQRTFPEAKVVKTLNTMNASLMVDPGRAAGGDHSVFVSGNDAAAKAEVATLLKSLGHQDVIDLGDITTARGAEMLLPVWIRLWGALGTANFNFKIAR | not failed
18 | MAQSETVERILDAAEQLFAEKGFAETSLRLITSKAGVNLAAVNYHFGSKKALIQAVFSRFLGPFCASLEKELDRRQAKPEAQHATLEDLLHLLVSQAMAVKPRSGNDLSIFMRLLGLAFSQSQGHLRKYLEEVYGKVFRRYMLLVNEAAPKLPPIELFWRVHFMLGAAAFSMSGIKALRAMAETDFGVNTSTEQVMHLMVPFFAAGMRAESGIDDPLLAGAQLRPRNKTPAKA | not failed
